This data set concerns T1, MMP2-cleavable peptide linker CGPLGVRGG within the MAP-Ab conjugate (imuGlue).
T1 sequence: CGPLGVRGG

As for MMP2 (matrix metalloproteinase-2), the “cumulative Ab release profile from MAP-Ab in the presence of MMP2” value is “the imuGlue may release 75% of Ab sprayed for 24 hours in the presence of MMP2” and the “emission spectrum of MAP-Ab with or without MMP2” value is “when MMP2 treatment was carried out, a blue shift was observed in the MAP-Ab emission spectrum”.

The values above are taken from patent publication US20210139608.
